Results published in US20200199192A1 (SHIRE NPS PHARMACEUTICALS, published 2020).

Tests used:
[1] = target: the molecule itself; assay: NanoDSF at room temperature, self-association
Description: Only the tryptophan fluorescence from the protein contributes to the signal. If tryptophan is buried or stable, the peak is at 330 nm and if the tryptophan is exposed or flexible, the peak is at 350 nm.

[2] = target: the molecule itself; assay: microscale thermophoresis (MST), self-association; MST
Protocol: Microscale thermophoresis (MST) and nano differential scanning fluorimetry (NanoDSF) were performed to characterize the dimer-monomer transition. MST was used to determine the monomer/dimer equilibrium dissociation constant Kd. MST is based on thermodriven diffusion of molecules while NanoDSF is based on Trp fluorescence and is commonly used for thermostability Tm.

HGDGSFSDEMNTILDNLAARDFINWLIQTKITD (also called Gattex) [teduglutide] was tested, and the Kd [1] was 77 µM and the Kd [2] was 24 µM.
